From the DeepSol protein solubility set

Test: soluble on expression in E. coli; label from the status in PepcDB or PDB records

**Q.** For “AHHHHHHGSKLIEMLKEITQVPGISGYEERVREKIIEWIKDYADYKVDEIGNLIVELGEGEVKAVFMAHMDEIGLLITGITQDGKLRFRKVGGIDDRLLYGRHVDVITENGKLDGVIGALPPHLNVKGVKDVVPWYQLTIDIGAESKEEALSLGVKPLDYAVFKKHFSVLNNKIVSTRSLDDRFGVVALVQAIRNLVDHELSGKFIFAFTVQEEIGLKGAKFLAEKYSPEYAFAIDSFACCSELTGDVRLGGGAVIRAVDNSAIYSRDLARKVWEIAEKNNIPIQIGVTGGGTDASVFQHKSKVLALSVPMKYLHSEVEMLNVKDLEALIALIEAITFEI”, which “soluble on expression in E. coli” value is on record?
**A.** soluble

**Q.** With “MSLNEWALETDAEFLVYNALRETGRLLISPDAITKQKARHVMRQVIARYPLGSKHDKLWLAAVEMLHYYAPEVLQQLGIDLDAAKRDLAARILPNRFECQGPAIIRSQDLSDAQAAQACDVLDKKEQDFHQVANTGLAPVADDYNTRVEVVVFANNSSYVNYSSFLFGNTTDNGGQYLEGNPADQNNQARFVAYRYANDADLSILNLEHEYTHYLDARFNQYGSFSDNLAHGHIVWWLEGFAEYMHYKQGYQAAVKLISQGKLSLSDVFATTYSNDTNRIYRWGYLAVRFMLEKHPQDVESLLALSRTGQFDQWAQSVKLLGERYNTEFSAWLDTLQRDNEGHHHHHH” as the sequence, how does the “soluble on expression in E. coli” value read?
**A.** not soluble

**Q.** For “QRKKAEEALRLSNIYNRSLIESSLDPLVTIGRDGKITDVNCATEQVTGYPRNDLIKTDFSDYFTEPENARAGYKQVFTDGEVRDYPLEIQHKDGHITPVLYNASVYRDENGEVIGVFAAARDIT”, which “soluble on expression in E. coli” value is on record?
**A.** not soluble

**Q.** With “MITQNIESLNNIAKIQHAANTDYLTDLANRRAFFRSAESRIKEYINKKVPYCLAMIDVDFFKKVNDTYGHDSGDQVLKVIALYMRKHFGAGLTARLGGEEFAVLLHGLDADYLHNKLDDFRREIAVSSIPAGDTSISITLSLGVVFDSEDELSKQMNEADNALYAAKENGRNQIVVFGAELDDLEHHHHHH” as the sequence, how does the “soluble on expression in E. coli” value read?
**A.** soluble

**Q.** Which “soluble on expression in E. coli” value does the source give for “MGSDKIHHHHHHMHVGRENSSFQICNSSQDIRKSDILDAMSIRFRQLQAFHATFETGTVTGAATLLGISQPGISNLLAQLERETRFKLFERVKGRLIPTPEAGVLYQEVDTVVRGLDHVGQAVTDLQNKQGGQLQVASQHAMSFGFMPKLIAQFAKTRPDMSISFQSQYSSKVQEWVMSGLFEIGVCETPQLYDALDTHPFQVEMQLTLHPDNPLARHDILTPELCGAEPFIVMGPDHMTHRRTREAFHTAGVPWNTRVHTHLFKNMLSFVQEDMGVAILDPFLLDHDESGSFVTRPFAPAIHMDMMVITSATRPLSTLALDFLDLLLTGIAQSDRRRVSPSNAAPGRPPLPMAAR” here?
**A.** not soluble

**Q.** For “MSLDLFSWAAAQQAAQSAPLAARMRPQTLDEFVGQEHLVGPGRFLRRALEAGHLPSCILFGPPGTGKTTLARLMASNVNAHFEQLNAVTSGVQDIRRIVDEARARLAERGQKTVVFIDEIHRWRKDQQDALLPHVEDGLITLVGATTQNPLVSVNAPLVSRTRIFELKPLSDEHIAHLLDRALRTPGRGLGNYNATVTPEAMEHLVRMAGGDARAALNALELAVLLTQPDEQGRRTVTLETAEEALLKRAVVYDHDGDEHYHVASALIKSIRGSDPDAALYWLARMLYAGEDPRFIARRLVISAAEDIGLADPQALVIAQAAADAVSFIGMPEGRIPLAEAVVYLACAPKSNSAYLAIDRALAVVEREKTPPVPNHLKDTGYGSDQRLGYGKGYQYPHDFPGAWVEQRYLPEGVDGPFWEPKGYGREAELARLLRERRGREGHHHHHH”, which “soluble on expression in E. coli” value is on record?
**A.** not soluble

**Q.** With “SDEVYLYSDATTSKIARTVTQKLGFSKASSSGTRLHRGYVEEATLEDKPSQTSHIVFVVHGIGQKMDQGRIIKNTAMMREAARKMEEKHFSNHATHVEFLPVEWRSKLTLDGDTVDSITPDKVRGLRDMLNSSAMDIMYYTSPLYRDELVKGLQQELNRLYSLFCSRNPDFEEKGGKVSIVSHSLGCVITYDIMMGWNPGGLYEQLLQKEEELPDERWMSYEERHLLDELYITKRRLREIEDRLHGLKAPSISQTPALKFKVENFFCMGSPLAVFLALRGIRPGNSGSQDHILPREICNRLLNIFHPTDPVAYRLEPLILKHYSNISPVQIHWYNTSNPLPYEHMKPNFLNPAKEPTSVSDSENIAAIPSPVTSPVLSRRHYGESITNIGKASILGAASIGKGLGGMLFSRFGRSSASQPSEPSKDSLEDDKKPSASPSTTTVATQTLPHSGSGFLDSAYFRLQESFFYLPQLLFPENVMQSKDDSLVELEHRIDFELREGLVESRYWSAVTSHTAYWSSLDVALFLLTFMYKHEHDTEAKPSLGSL” as the sequence, how does the “soluble on expression in E. coli” value read?
**A.** soluble

**Q.** With “MTVIQNIPNSLCKGLNTFSKNYLQNCKRCLTFFYELCGIICKKIEIMKGYERATKEEINDRLRIEENCHAQVERIIYIRHLCNLNLEEAADVTNLSISTLSRYENEVTKCSVQSLITIYYHYQKYLYEQHIPFDKNLFLIDMNSFHN” as the sequence, how does the “soluble on expression in E. coli” value read?
**A.** not soluble

**Q.** With “MTEMAKGSVTHQRLIALLSQEGADFRVVTHEAVGKCEAVSEIRGTALGQGAKALVCKVKGNGVNQHVLAILAADQQADLSQLASHIGGLRASLASPAEVDELTGCVFGAIPPFSFHPKLKLVADPLLFERFDEIAFNAGMLDKSVILKTADYLRIAQPELVNFRRTA” as the sequence, how does the “soluble on expression in E. coli” value read?
**A.** soluble

**Q.** Which “soluble on expression in E. coli” value does the source give for “MGSDKIHHHHHHMITISHITAKNMYKSLEERINKFPQGAPPSDTLYKILNVLYTEQEAKLVAQLPIKPFRVKTAAKIWSVSESEAYRVLDKLASKALILDIEDNKGKKYIMPPPMAGFFEFAMMRTRHDIDQKLLAELYYQYMNVEEDFIKDLFYSTETKLGRVYVQEEVLTNDNEVSILDYERATHIIDESTHIGISMCYCRHRMQHVGKACDAPMDICMTFDNVANSLINNKFARRVDKIECKELLHQAYEHNLVQCGENVRKGVTFICNCCGCCCEAMVAAKRFGNLHPVQTTSFIPNINHENCVKCGKCITACPIDAISKVKEDGKEYIKIDEDRCLGCGVCVRNCHKNSIMLLKRDEKIITPANSVHRAVLMAIEKGQLQNLIFDNNALASHRAMGAILSAILKLEPAKKILASKQLKSVYLDKLLSMNDK” here?
**A.** not soluble

**Q.** Which “soluble on expression in E. coli” value does the source give for “MGSDKIHHHHHHMADGGSERADGRIVKMEVDYSATVDQRLPECAKLAKEGRLQEVIETLLSLEKQTRTASDMVSTSRILVAVVKMCYEAKEWDLLNENIMLLSKRRSQLKQAVAKMVQQCCTYVEEITDLPIKLRLIDTLRMVTEGKIYVEIERARLTKTLATIKEQNGDVKEAASILQELQVETYGSMEKKERVEFILEQMRLCLAVKDYIRTQIISKKINTKFFQEENTEKLKLKYYNLMIQLDQHEGSYLSICKHYRAIYDTPCIQAESEKWQQALKSVVLYVILAPFDNEQSDLVHRISGDKKLEEIPKYKDLLKLFTTMELMRWSTLVEDYGMELRKGSLESPATDVFGSTEEGEKRWKDLKNRVVEHNIRIMAKYYTRITMKRMAQLLDLSVDESEAFLSNLVVNKTIFAKVDRLAGIINFQRPKDPNNLLNDWSQKLNSLMSLVNKTTHLIAKEEMIHNLQ” here?
**A.** not soluble

**Q.** With “MGSDKIHHHHHHMEIVFVYDAVYPWTKGGVERRLHEVGRRLSNEHNVKWLCVGWWGKEKRIQEGVELIPVCKAQQLYSRGRRTIREAMIFAASLLKKSRIKADVIDCQVFPYLSVFPFATRKELVLTWHEFWGDYWYEYLGKAGFFGKAVERIVAKLKARTIAVSETTRKALESLGIRATVIPNGVDFPRISEIPASSEEWDVIFVGRLIREKNLELLFDAMKLLPELNCLVVGDGPERERLSKIAPANVDFGGSLGYEEVISMMKSSKVFAIPSRREGFGISALEANACGLPVVTIRHQMNAVVEIAEKTGFVAEPHARDFAEKIRLALEMRREMREKCINFAKNFDWEVIARRLEEFYEGVHSPPNEGRAE” as the sequence, how does the “soluble on expression in E. coli” value read?
**A.** not soluble

**Q.** With “MIAGYIMAAENQTLNQWTINQLGITRGDSILEVGFGPGYCMQQMLKREKDVHLHGIDVSEAMLKLAARRVKPKGVRLIQGSIETFPLPASFYDKVISVNNYTIWNDQTKGIKQIYRALKPGGKAAITMQPREADASPEKTKSFGRQMIADFKAAGFEDIDIQFKNIKPELSVCATAKKPATLEHHHHHH” as the sequence, how does the “soluble on expression in E. coli” value read?
**A.** not soluble

**Q.** With “MTVIQWFPGHMAKAKREVQEKLKLIDVAFELLDARVPMSSRNPMIDEILGQKPRLILLNKADMADEAVTEQWIRYFHDQGRLALPIDAQSGTGVRQIAAAAKEMVKDKFEKMRAKGIKNPRPVRALIVGIPNVGKSTLINRLAGRHIAKTGDKPGVTKAQQWIKVGKEMELLDTPGILWPKFEDEDVGYKLAVTGAIKDEILNLQDVAVYALRFLSTHYPNRLAERYGLDDIPDDIVALFDAIGRQRGCLTSGGAVDYDKVADIVLYDIRTEKLGRLSFETPASRT” as the sequence, how does the “soluble on expression in E. coli” value read?
**A.** not soluble

**Q.** For “MDQFVNHLSCTALLVGKKASVDGSTMIARNEDASGGINPKRFIVVQPADQPQRYVSTFNGFQLDLPQTPLQYTCTPVADQSHGTWGEAGINSENVAMSATETEFTNTTMLGLDPLEPDGIGEEAMLTVVLPYIHNAREGVERLGELVTKYGTCESNGIAFSDANEIWYFETVGGHHWAAERIPDDRYVLAPNQTGIQEIDFQAPEHYKYSADLKDFAAKYHLNKAKEGFNFRDIFGEDTQADHYYNTPRVWYAQKMLNPEIDQDPESRTMPFSRVPSHLISVEDVAMVLSSHYQATDFDPYGQTGTPETRRRYRPIGMNRNQEMHILQIRPNMPKSHAAIHWLAEGVNIFNSPVPFFANCTTTPENFQYTPIDKSSTDSFYWLNKLIAMVADPLFAEHDWDAEFAVSESRKFGFAAGRAAVAKGDAAFADVKPEDLPAWHDALNAETAATITNDLQYLLHQLVCIRAEKMTPSFEKGGELLEHHHHHH”, which “soluble on expression in E. coli” value is on record?
**A.** not soluble

**Q.** With “QSGHTKKINDKEMLDYKGRIPVGTLTLKFDQPVKDPILDFSGLGGYNIFSAHHEEASHEGIRNWEVRNGKIVVTGESASVVGAQINDQIRGSFNHTDLELETPGVKLVELAKNSNLKVDDRSISTVAANNDYVCNTPNDYQTLPEELENGPSYEQNDAFLSPVMKPAGCGSVLAQGEFSELKFTLFSSVEPMSSFAHDTHKTGLLYFAGGVNGGNANPVTPIPMLEGYSKPQEVSDTSNGDLFRMSIRLPEEPVKGSVSVGDFVWIDKDADGRQDDNEPGLAGVKLWLYGPDGGPVTDVHGKVVKSVTTGEDGKYSFKDLPVLTGSDSYTVKVVDVPAGYKPTLSGTGKVPAFKDSSTDLAKSTPGALSENGAQDLTLDFGFVKESATPSDPTVPGFK” as the sequence, how does the “soluble on expression in E. coli” value read?
**A.** not soluble

**Q.** With GFTPHDSAPYGALDMADFEFEQMFTDALGIDEYGG as the sequence, how does the “soluble on expression in E. coli” value read?
**A.** soluble

**Q.** Which “soluble on expression in E. coli” value does the source give for “MGSDKIHHHHHHMIIVAGTPGAGKTSVMTHTIKQLLNKGNKPAVVKIDCLYTDDDTRYGKLKIPTLVGLSKDMCPDHFAIYNLEEMAEWAEKEGVDTLIIETAGLCHRCAPYTKNSLGICVIDATSGPNTPRKVGPFLTSADVVAITKGDIISQAEREVFRERVLEMNPKCTIYDVNGLSGQGCAEISEEIMEAKDIVDLENEELRHNAPLCVCTLCVGETKVAKKHHRGVLRRIDGFTKYVGE” here?
**A.** not soluble

**Q.** Which “soluble on expression in E. coli” value does the source give for “MRGSHHHHHHGSRVMVIGGDGYCGWATALHLSKKNYEVCIVDNLVRRLFDHQLGLESLTPIASIHDRISRWKALTGKSIELYVGDICDFEFLAESFKSFEPDSVVHFGEQRSAPYSMIDRSRAVYTQHNNVIGTLNVLFAIKEFGEECHLVKLGAMGEYGTPNIDIEEGYITITHNGRTDTLPYPKQASSFYHLSKVHDSHNIAFTCKAWGIRATDLNQGVVYGVKTDETEMHEELRNRLDYDAVFGTALNRFCVQAAVGHPLTVYGKGGQTRGYLDIRDTVQCVEIAIANPAKAGEFRVFNQFTEQFSVNELASLVTKAGSKLGLDVKKMTVPNPRVEAEEHYYNAKHTKLMELGLEPHYLSDSLLDSLLNFAVQFKDRVDTKQIMPSVSWKKIGVKTKSMTT” here?
**A.** soluble

**Q.** With “MGSDKIHHHHHHMIIMIPFKSMRDQAGLNRQHIFDLARLPPDLLAPLDLGQHERQLILLGHAGRLLWERVQKHATDPVHPIDSYTIGVVEQWAALALPHTRIRFVYPRGLPANRHVGLQRLGTLAGWHHPSPFMVGIDARWGSWFAYRAAIIVDSELPASPVEDHGHPCVDCTAKPCIGTCPASALDSGTMDMNACTASGSLKPRPARTAAWRDRPAL” as the sequence, how does the “soluble on expression in E. coli” value read?
**A.** not soluble
